Results taken from publication PMC4274154, “DEAF1 Binds Unmethylated and Variably Spaced CpG Dinucleotide Motifs”.

Biological target: T1, DEAF1-FLAG (UniProt O75398 1-565)
T1 sequence: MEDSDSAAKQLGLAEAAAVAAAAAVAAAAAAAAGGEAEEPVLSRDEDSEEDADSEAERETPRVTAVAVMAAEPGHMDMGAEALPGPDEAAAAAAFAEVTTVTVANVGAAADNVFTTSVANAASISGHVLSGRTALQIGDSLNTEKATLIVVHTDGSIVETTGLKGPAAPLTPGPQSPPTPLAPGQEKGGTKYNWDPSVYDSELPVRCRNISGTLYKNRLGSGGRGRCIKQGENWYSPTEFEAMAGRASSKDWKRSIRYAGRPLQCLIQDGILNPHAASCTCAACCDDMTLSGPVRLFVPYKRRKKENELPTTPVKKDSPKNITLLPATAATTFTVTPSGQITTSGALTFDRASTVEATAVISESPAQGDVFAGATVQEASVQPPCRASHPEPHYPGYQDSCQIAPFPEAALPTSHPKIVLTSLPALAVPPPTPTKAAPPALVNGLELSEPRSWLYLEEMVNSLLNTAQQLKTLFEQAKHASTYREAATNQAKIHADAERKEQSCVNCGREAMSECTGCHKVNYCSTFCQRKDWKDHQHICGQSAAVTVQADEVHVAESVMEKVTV
Test: EMSA; EMSA: 200 ng DEAF1-FLAG, 30 min at room temperature, 1x EMSA binding buffer (composition and pH not given), 1 ug dA:dT, 5% native polyacrylamide gel
Settings: protein: recombinant; tags: FLAG; chain copies: 2; label: 32P

B1: EIF4G3 promoter probe (dsDNA)
DNA 1: ACTTCGGACTTTTTCGGAAT
DNA 2: ATTCCGAAAAAGTCCGAAGT
- binding result: binds

B2: 8mut (TTCGGG to AACGCC in both half-sites) (dsDNA)
DNA 1: TTGAGAACGCCAAACAACGCCCTCAA
DNA 2: TTGAGGGCGTTGTTTGGCGTTCTCAA
- binding result: no binding

B3: 8-space probe (two TTCGGG motifs) (dsDNA)
DNA 1: TTGAGTTCGGGAAACTTCGGGCTCAA
DNA 2: TTGAGCCCGAAGTTTCCCGAACTCAA
- binding result: binds

B4: 6-space probe (two TTCGGG motifs) (dsDNA)
DNA 1: TTGAGTTCGGGTGTTCGGGCTCAA
DNA 2: TTGAGCCCGAACACCCGAACTCAA
- binding result: binds

B5: 11-space probe (dsDNA)
DNA 1: TTGAGTTCGGGAAAAAACTTCGGGCTCAA
DNA 2: TTGAGCCCGAAGTTTTTTCCCGAACTCAA
- binding result: binds

B6: 6mut (TTCGGG to AACGCC in both half-sites) (dsDNA)
DNA 1: TTGAGAACGCCTGAACGCCCTCAA
DNA 2: TTGAGGGCGTTCAGGCGTTCTCAA
- binding result: no binding

B7: 6-space methylated probe (dsDNA)
DNA 1: TTGAGTTCGGGTGTTCGGGCTCAA
DNA 2: TTGAGCCCGAACACCCGAACTCAA
modifications: 5-methylcytosine on both strands at the CpG of the second half-site
- binding result: no binding

B8: 10-space probe (dsDNA)
DNA 1: TTGAGTTCGGGAAAAACTTCGGGCTCAA
DNA 2: TTGAGCCCGAAGTTTTTCCCGAACTCAA
- binding result: binds

B9: 9-space probe (dsDNA)
DNA 1: TTGAGTTCGGGAAAACTTCGGGCTCAA
DNA 2: TTGAGCCCGAAGTTTTCCCGAACTCAA
- binding result: binds
